Experimental findings from patent US20260258397A1, “REAGENTS AND SYSTEMS FOR […]” (priority 2023, published 2026) are described below.

This test deals with ΔN-HAB1 (HAB1 Δ1-178), recombinant (Arabidopsis) (UniProt Q9CAJ0). In words: cell-based or functional assay.
Chain of ΔN-HAB1 (HAB1 Δ1-178), recombinant (Arabidopsis) (Q9CAJ0 179-511, stated change not applied): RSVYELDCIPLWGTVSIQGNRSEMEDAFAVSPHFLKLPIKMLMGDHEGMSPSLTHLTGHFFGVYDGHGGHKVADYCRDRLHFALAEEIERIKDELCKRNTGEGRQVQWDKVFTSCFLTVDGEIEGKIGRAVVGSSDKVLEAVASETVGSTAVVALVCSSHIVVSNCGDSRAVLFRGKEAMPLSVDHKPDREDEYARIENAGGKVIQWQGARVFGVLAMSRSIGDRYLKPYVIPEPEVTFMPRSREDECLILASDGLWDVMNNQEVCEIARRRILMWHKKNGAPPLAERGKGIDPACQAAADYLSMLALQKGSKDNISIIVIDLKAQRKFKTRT

B1: 6xHis-PYR1^WIN, recombinant (designed binder, not shown: small tags and cut ends)
chain: MPSELTPEERSELKNSIAEFHTYQLDPGSCSSLHAQRIHAPPELVWSIVRRFDKPQTYQHFIKSCSVEQNFEMRVGCTRDVIVISGLPANTSTERLDILDDERRVTGFSIIGGEHRLTNYKSVTTVHRFEKENRIWTVVLESYVVDMPEGNSEDDTRMAIDTVVKLNLQKLATVAEAMARNSGDGSGSQVT
Take B1: the EC50 for HAB1 inhibition (in vitro phosphatase activity, fluorogenic substrate; the ligand WIN 55,212-2 is titrated, 50 nM receptor, 25 nM ΔN-HAB1) stood at 72 nM.

B2: PYR1^DIAZI, recombinant (designed binder)
chain: MPSELTPGERSELKNSIAEFHTYQLDPGSCSSLHAQRIHAPPELVWSIVRRFDKPQTYKHFIKSCSVEQNFEMRVGCTRDYIVISGMPANTSTERLDILDDERRVTGYSIIGGEHRLTNYKSVTTVHRFEKENRIWTVVLESYVVDMPEGNSEDDTRVGVDTVVKLNLQKLATVAEAMARNSGDGSGSQVT
As to B2, the EC50 of receptor-mediated inhibition of HAB1 phosphatase activity in vitro (ligand diazinon titrated) turned out to be 36 nM.

B3: 6xHis-PYR1^4F, recombinant (designed binder, not shown: small tags and cut ends)
chain: MPSELTPEERSELKNSIAEFHTYQLDPGSCSSLHAQRIHAPPELVWSIVRRFDKPQTYKHFIKSCSVEQNFEMRVGCTRDVIVISGLPANTSTERLDILDDERRVTGFSIIGGEQRLTNGKSVTTVHRFEKENRIWTVVLESYVVDMPEGNSEDDTRMVGDTVVKLNLQKLATVAEAMARNSGDGSGSQVT
With B3, the EC50 for HAB1 inhibition (in vitro phosphatase activity, fluorogenic substrate; the ligand 4F-MDMB-BUTINACA is titrated, 25 nM receptor, 25 nM ΔN-HAB1) turned out to be 102 nM.

B4: PYR1^PIRI, recombinant (designed binder)
chain: MPSELTPEERSELKNSIAEFHTYQLDPGSCSSLHAQRIHAPPELVWSIVRRFDKPQTYRHFIKSCSVEQNFEMRVGCTRDVIVISGLPANTMTERLDILDDERRVTGFSIIGGEHRLTSYKQVTTVHRFGKENRIWTVVLESYVVDMPEGNSEDDTRMTTDTVVKLNLQKLATAAEAMARNSGDGSGSQVT
Consider B4, for which the EC50 of receptor-mediated inhibition of HAB1 phosphatase activity in vitro (ligand pirimiphos-methyl titrated) came out at 58 nM.
